# Results as given in the supplement of paper PMC9170038.
# Tested on: MS2 coat protein
# Test: apparent KD of MS2 coat protein; designed switch direction (-1 OFF switch, 1 ON switch): 1; higher = weaker reporter binding
# Procedure, shortened: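 Designed RNA switches sharing common flanks were transcribed on Illumina chips by stalled E. coli RNA polymerase. They were titrated with SNAP-549-labelled MS2 coat protein, from 0.7 or 1.5 nM doubling to 3 µM, in Tris-HCl pH 7.5 buffer with KCl, MgCl2, BSA, DTT, tRNA and Tween-20. Titrations ran without input, with 200 uM small-molecule ligand, or with an oligonucleotide input. The apparent KD of each design is the median over its clusters, after curve-fitting of normalised cluster fluorescence.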
# [1] = Eterna round: R95, input ligand: FMN 200 uM
# [2] = Eterna round: R95, input ligand: microRNA oligo, concentration not stated
# [3] = Eterna round: R95, input ligand: none
# [4] = input ligand: microRNA oligo, concentration not stated
Sequence,apparent KD of MS2 coat protein [1] [nM],apparent KD of MS2 coat protein [2] [nM],apparent KD of MS2 coat protein [3] [nM],apparent KD of MS2 coat protein (input ligand: FMN 200 uM) [nM],apparent KD of MS2 coat protein [4] [nM],apparent KD of MS2 coat protein (input ligand: none) [nM]
GGCUAUCGCAUUCGAUAGCUUAAGCAUGUACAUGAGGAUCACCCAUGUCAUGUACAGGCUUUUUGCUCGUACUUAUA (puzzle: Sensor for hsa-mir-208a),286,14.9,366,,,
"ACAUGAGAGAUAGGAUAUGUUGUACCUACAUGUGACAUGAGGAUCACCCAUGUGGUAAGUAUGAGGCAGAAGGAUCAGAUAUGU [Equivalence 41 - Jieux - Same State NG 2] (Eterna round: R96, puzzle: Same State NG 2)",,,,29.2,68.1,88.1
"ACGCAGCUAGGUGAGGAUAUCGGUGGUAAAACAUGAGGAUCACCCAUGUCCGAAGCUCGGACUUCCGAGAAGGCGCCCGGCUGCA [Velaberi] (Eterna round: R96, puzzle: Same State 2)",,,,12.7,78.8,106
"UCGGGCGUACUUGCUGACAUGAGGAUCACCCAUGUAAAUGGGAAGGAUAUGGUUCCGUUUCGGUACCAGAAGGUCCUGGGUGCU [salish99_SSNG3_r04_310] (Eterna round: R96, puzzle: Same State NG 3)",,,,459,748,1030
CGGGUACAUGAGGAUCACCCAUGUUGGAGUAAUGCAGGAUAUGUGAGACGAGAUGAUAAAACAGAAGGGCAAGGAG [JR_SS!_Sub010] (puzzle: Same State 1),50.2,70.5,123,,,
"ACAUGAGGAUCACCCAUGUCGGAUAAGGAAACGACCACGUGGGAGGAUAUUGUAACGCGUCUGUACGAGAAGGCCCAUUCCAGU [Eternabot solution 42] (Eterna round: R96, puzzle: Same State NG 3)",,,,29.2,66.8,80.8
"AGAUCAUGACGAGGAUAUGGUACAUGAGGAUCACCCAUGUAUGUACUAUAACCCGAAUGAGGAAUCCAGAAGGCGUCGUGGUCA [JL SSNG2 1.13] (Eterna round: R96, puzzle: Same State NG 2)",,,,24.4,56.3,93
"UGACACACGGCAGGAUAUCCUUAGCAAAGCUAAGGAGAAGGGCCUCAUGUCGUGGAAACGUGACAUGAGGAUCACCCAUGUCGC [Omei SS(NG)1 Cv8] (Eterna round: R96, puzzle: Same State NG 1)",,,,58.7,5.65,34.1
AAGAAGACGGACAAGGAUAUGUCAAAGGAAACAUGAGGAUCACCCAUGUGGAGAUUGGAAAAGAAACAGAAGGUGUACGGAGAGA [JR_SS2_Sub007] (puzzle: Same State 2),10.6,12.3,29.3,,,
AGAGCCGGCACUGAGGAUAUUCAUAUUAAAACAUGAGGAUCACCCAUGUAGGCCAGAAGGCCUUGGGAGAAGGCAGGUCGGCUCG [Mat - Same State 2 - Mod of UCT - D57] (puzzle: Same State 2),23.5,244,350,,,
"UAGUUUCAACGAGGAUAUAAUAGGUUCUAUUCGUGAUAUUGCGUACAUGAGGAUCACCCAUGUUAUUAGAAGGCGUAUGGGUUU [JR_SSNG2_Sub086] (Eterna round: R96, puzzle: Same State NG 2)",,,,89.9,59.8,77.9
"AUUGCUUACGCAGGAUAUGAUGCGAAAAUUGCGUCAGAAGGGUGAAGUAUCUCAUUGCAACAGGACAUGAGGAUCACCCAUGUC [SameState NG1 #99] (Eterna round: R96, puzzle: Same State NG 1)",,,,150,303,455
"UUGAAGAAUUAAGGAUAUUGAGUACAUAUGUUUAACAUGAGGAUCACCCAUGUGGGUUGCGGUAUCGAGAAGGUAAAUUACAAG [JL SSNG2 1.44] (Eterna round: R96, puzzle: Same State NG 2)",,,,105,91.8,138
"AAGCUCGUGUGAGGAUAUGCCGCCGUUUCGGCUGCAGAAGGUGCUACGUUACAUGAGGAUCACCCAUGUCUCUGUUGUUUCGUA [salish99_SSNG1_r04_952] (Eterna round: R96, puzzle: Same State NG 1)",,,,,37,
"GCGUGAGAGAUAGGAUAUCGUGUACCUACAUGUGACAUGAGGAUCACCCAUGUGGUAAGUAUGAGCGAGAAGGAUCCGAUAUGU [salish99_SSNG2_r04_1003] (Eterna round: R96, puzzle: Same State NG 2)",,,,28.2,54.7,63.5
